What is called Kd is a measure of binding affinity in units of concentration. Read a low Kd as tighter binding.

In series [1] the target is RXRA DBD (Homo sapiens, UniProt P19793 130-212). The experiment in a line: X-ray crystallography.
The target of series [2] is T1, RXRA ΔAB;RARA ΔAB (Mus musculus;Mus musculus, UniProt P28700;P11416 135-467;84-462, |).
T1 sequence 1: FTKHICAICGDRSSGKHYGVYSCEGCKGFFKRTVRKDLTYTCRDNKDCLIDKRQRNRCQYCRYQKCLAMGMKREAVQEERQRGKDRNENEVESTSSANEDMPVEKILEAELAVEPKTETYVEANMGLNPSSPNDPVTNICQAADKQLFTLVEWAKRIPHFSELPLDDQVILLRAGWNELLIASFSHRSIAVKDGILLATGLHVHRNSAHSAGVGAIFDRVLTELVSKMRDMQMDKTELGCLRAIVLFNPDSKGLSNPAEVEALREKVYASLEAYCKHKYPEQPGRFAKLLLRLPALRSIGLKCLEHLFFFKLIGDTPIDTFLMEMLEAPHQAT
T1 sequence 2: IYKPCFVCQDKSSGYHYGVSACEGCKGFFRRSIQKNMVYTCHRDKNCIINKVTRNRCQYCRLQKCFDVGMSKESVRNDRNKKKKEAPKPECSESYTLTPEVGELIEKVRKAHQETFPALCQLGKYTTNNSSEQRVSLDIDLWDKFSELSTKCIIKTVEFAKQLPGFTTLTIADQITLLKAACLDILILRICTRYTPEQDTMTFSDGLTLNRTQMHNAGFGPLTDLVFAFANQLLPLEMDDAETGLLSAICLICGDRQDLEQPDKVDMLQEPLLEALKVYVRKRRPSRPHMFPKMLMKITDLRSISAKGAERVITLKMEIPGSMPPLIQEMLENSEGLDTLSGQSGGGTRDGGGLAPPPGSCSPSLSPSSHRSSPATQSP
Briefly: FRET titration.

The target in series [3] is T2, RXRA ΔAB;RARA ΔABF (Mus musculus;Mus musculus, UniProt P28700;P11416 135-467;84-421, |).
T2 sequence 1: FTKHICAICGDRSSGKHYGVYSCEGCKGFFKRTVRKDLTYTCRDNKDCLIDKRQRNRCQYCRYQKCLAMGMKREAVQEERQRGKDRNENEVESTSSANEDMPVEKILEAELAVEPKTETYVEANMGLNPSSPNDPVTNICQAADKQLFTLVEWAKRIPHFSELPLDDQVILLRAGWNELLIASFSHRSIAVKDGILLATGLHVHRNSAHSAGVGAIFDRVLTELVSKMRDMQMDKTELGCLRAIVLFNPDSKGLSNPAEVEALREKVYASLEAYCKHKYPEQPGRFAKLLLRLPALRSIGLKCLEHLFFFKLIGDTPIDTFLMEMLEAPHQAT
T2 sequence 2: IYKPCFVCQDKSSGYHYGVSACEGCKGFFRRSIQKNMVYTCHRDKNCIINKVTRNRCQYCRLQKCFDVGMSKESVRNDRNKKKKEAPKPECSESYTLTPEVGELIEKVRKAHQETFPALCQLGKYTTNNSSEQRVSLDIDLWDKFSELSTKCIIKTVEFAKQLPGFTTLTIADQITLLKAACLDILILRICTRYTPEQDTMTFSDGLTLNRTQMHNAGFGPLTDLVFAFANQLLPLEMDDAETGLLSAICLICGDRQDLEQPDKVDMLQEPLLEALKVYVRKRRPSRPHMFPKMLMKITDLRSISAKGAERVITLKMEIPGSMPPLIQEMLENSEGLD
Briefly: SEC-SAXS/RALLS. (In general: Size exclusion chromatography separates by hydrodynamic size, large species first.)

Series [4] addresses RXRA DBD;RARA DBD (Homo sapiens;Homo sapiens, UniProt P19793;P10276 130-212;82-167, |). The experiment in a line: X-ray crystallography.
Series [5] concerns the target T1, RXRA ΔAB;RARA ΔAB. The experiment in a line: HDX-MS.
Series [6] concerns the target T3, HsRARA DBD (82–167) (human, UniProt P10276 82-167).
T3 sequence (looked up): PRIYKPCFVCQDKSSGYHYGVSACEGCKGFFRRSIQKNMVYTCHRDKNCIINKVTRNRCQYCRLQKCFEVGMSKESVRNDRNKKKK
The experiment in a line: crystal structure.

B1: Hoxb13 DR0 (crystal) (dsDNA)
DNA 1: GAAGGTCAAGGCCAAG
DNA 2: CTTGGCCTTGACCTTC
Take B1: the binding result in series [1] is listed as “binds”.

B2: Socs3 DR0 (dsDNA)
DNA 1: AGGGGTCAAGGTCAAA
DNA 2: TTTGACCTTGACCCCT
Take B2: the affinity in series [2], expressed as Kd, was 2700 nM.

B3: F11r DR5 (dsDNA)
DNA 1: AGGGGTCAAGCCAGGTTCACT
DNA 2: AGTGAACCTGGCTTGACCCCT
As for B3, the binding result in series [3] is given as “binds”.

B4: Rarb2 DR5 (crystal) (dsDNA)
DNA 1: AGGGTTCACCGAAAGTTCACT
DNA 2: AGTGAACTTTCGGTGAACCCT
As to B4, the binding result in series [4] was “binds”.

B5: Hoxb13 DR0 unlabelled (SAXS, HDX) (dsDNA)
DNA 1: GAAGGTCAAGGCCAAG
DNA 2: CTTGGCCTTGACCTTC
For B5, the binding result in series [5] and in series [3] was “binds” in each case.

B6: Ramp2 DR1 (dsDNA)
DNA 1: TGAGTTCAAGGGTCAAT
DNA 2: ATTGACCCTTGAACTCA
B6 had a Kd in series [2] of 500 nM.

B7: HsRXRA DBD (130–212) (domain or fragment, human, UniProt P19793 130-212, looked up)
chain: FTKHICAICGDRSSGKHYGVYSCEGCKGFFKRTVRKDLTYTCRDNKDCLIDKRQRNRCQYCRYQKCLAMGMKREAVQEERQRG
Regarding B7, the binding result in series [6] is listed as “binds”.

B8: Rarb2 DR5 TAMRA (dsDNA)
DNA 1: AGGGTTCACCGAAAGTTCACT
DNA 2: AGTGAACTTTCGGTGAACCCT
Regarding B8, in series [2], the dissociation constant (Kd) was 800 nM.

Source of the values: PMC7515732 (Nucleic Acids Research, 2020).
